Experimental data published in a protein production outcome set (Wang et al. 2014).

Assay: label from the status in PepcDB records

Sequence	protein production
MSDHPGSNAANPPPVPGAPALRTRRFNVSLVWLVPIVAALVGLSMVVHNSLSAGPEISISFQTAEGLEANKTQVKYKNVVIGKVTSIALSDDRKKVVAKVELDQSAEPFTADDSLFWVVRPRIGANGISGVDTLLSGAFIGADAGKSEKRKDSFKGLETPPPITYGQKGKRFTLHTDDLGSLDIGSPVYYRRIEVGQVVSYQLANSGKGVDVKIFVNSPNDKYVTTDTRFWNASGVDVTLGANGLKVNTESVSSILAGGIAFVEPKYSPNAKPADENAEYTLFGDQDTALAPPDGAPYYIRMRFDQALRGLSVNAPVEFLGVNIGKVVSMDLDYDEQRKYFPTLVGAVIYPERLGKAHEKLVKQTGGEDDVRSAKLIGAFVKNGLRAQPRSGNLLTGQLYISLDFVTNAKPVAYDATARPLEIPTVPGSMDKLQEQLQAVVDKISKLPIDSIAANLNGSLAEMQKTLKQVNGEVLPQMRDTLEQSKKTLASANESFSEDSPQRQKLGQAMEEVQRTARSVRVLSDFLGRHPEALIRGRLKDNQPDAYQSPSSSVRESVPEAQP	failed
MSDICVIIAAYNAEATIAQAVTSALAEAEVAEVVVVDDASSDATAEAALAASDGSGRLIVERQAQNGGPSAARNRAVALSQAPRIAILDADDFFLPGRFARLDPDLDLAADNIVFVTPEHAARLDPTNLPAAPREVEMLDAERFALGNLAQGVHRGELGFLKPVMSRAFLTRHGLRYDERMWLGEDFDLYMRMLLLGARFGLTRAVGYAAVQRGASLSGRHRTADLAALEACCRAHLEMPASPATQEAMRRHLRQVQAKLLLRQFLDRKAEAGLGAALGFALAPPARFLPIAKGVARDKIAALRPPAPPRAERFLLPVLEHHHHHH	failed
MSDIHKKIKKKQFAPLYLLYGTEAFFINETIKLITTEALEEEDREFNVVTYDLEEAYLEDVVEDARTLPFFGERKVLLIKSPLFLTSQKEKLEQNIKILEEYIGEPSPFSILVFVAPYEKLDERKKITKLLKKTADIVEANAMQVQDVQKWIVARAEEGHVHIDNAAVSLLLELVGSNVTMLAKEMDKLTLYVGMGGEITPKLVAELVPKSVEQNVFALTEKVVKKDIAGAMQILDGLFTQQEEPIKLLALLVSQFRLLHQVKELQQRGYGQNQIASHIGVHPYRVKLAMNQTKFFSFEELKKVIIELAEADYSMKTGKMDKKLVLEFFLMRLNHM	failed
MSDIIDEVISSFKTSSIFINREYLLPDYIPDELPHREDQIRKIASILAPLYREEKPNNIFIYGLTGTGKTAVVKFVLSKLHKKFLGKFKHVYINTRQIDTPYRVLADLLESLDVKVPFTGLSIAELYRRLVKAVRDYGSQVVIVLDEIDAFVKKYNDDILYKLSRINSEVNKSKISFIGITNDVKFVDLLDPRVKSSLSEEEIIFPPYNAEELEDILTKRAQMAFKPGVLPDNVIKLCAALAAREHGDARRALDLLRVSGEIAERMKDTKVKEEYVYMAKEEIERDRVRDIILTLPFHSKLVLMAVVSISSEENVVSTTGAVYETYLNICKKLGVEAVTQRRVSDIINELDMVGILTAKVVNRGRYGKTKEIGLAVDKNIIVRSLIESDSRFADLWS	failed
MSDIIHLLPDSVANQIAAGEVIQRPASVIKELVENAIDADAQNIHVLVTDAGKTCIQIIDDGKGMSETDARLSFERHATSKIREAADLFALRTMGFRGEALASIAAVAQVELKTRLESEELGTKLVIAGSKVESQEAVSCSKGSNFSVKNLFFNVPARRKFLKANSTELSNILAEFERIALVHPEVAFSLYSNDSELFNLPVSPLRQRILAIFGKKLNQQLLNIEVNTTMVKISGYIAKPETARKKGAHQYFFVNGRYMRHPYFHKAVMEAYEQLIPVGEQVSYFIYFEVDPANIDVNIHPTKTEIKFENEQAIWQILSASVKESLGKFSAIPSIDFDTEDMPDIPAFEQNLPPAPPKIHYNSDFNPFKVSSGGSGGGSYSRPKVEWEGLYGGLTKASKMNEPQQEPEMDWENSPFEEEPMVAEEKTISAVSAASSTFSSASSTLYANESVIEKGNLHLQFKGRFILTSVKSGLMLIDQHRAHIRVLFDRYMVQIKQKQGVSQGVLFPEILQLPASEAAVLQGIMDDLSAVGFDLSDLGGGSYAINGIPSGIEGLNPVELVRNMLHTAMEKGNDVKEEIQNILALTLARAAAIVYGQVLSNEEMVSLVDSLFACPSPNYTPDGKTVLTTIKEEDIEKLFK	failed
MSDILYSLLISAFLGLAHGLDADHIANVRIFKSVKKIFEFSLFHSAGFLIIAIPLSLLSLVTILEFPLLITSYSIGLLVSGLLLYGTVKGKELEIEPKRFGLLQGALVISPSKLIVLILALASESIFYAVLILLVFIVTSIISFMIFSLLNLIPKRFDKIVNIVISLGSIIYILYELITTLMSMH	failed
MSDKYYRSAYMNVDLNAVASNFKVFSTLHPNKTVMAVVKANAYGLGSVKVARHLMENGATFFAVATLDEAIELRMHGITAKILVLGVLPAKDIDKAIQHRVALTVPSKQWLKEAIKNISGEQEKKLWLHIKLDTGMGRLGIKDTKTYQEVIEIIQQYEQLVFEGVFTHFACADEPGDMTTEQYQRFKDMVNEAIKPEYIHCQNSAGSLLMDCQFCNAIRPGISLYGYYPSEYVQQKVKVHLKPSVQLIANVVQTKTLQAGESVSYGATYTATDPTTIALLPIGYADGYLRIMQGSFVNVNGHQCEVIGRVCMDQTIVKVPDQVKAGDSVILIDNHRESPQSVEVVAEKQHTINYEVLCNLSRRLPRIYHDGDQRFVTNELLK	not failed
MSDLKSLATKFASDHESGKLLVLPTVWDTWSAGLVEEAGFSGLTIGSHPVADATGSSDGENMNFADYMAVVKKITSAVSIPVSVDVESGYGLSPADLIAQILEAGAVGINVEDVVHSEGKRVREAQEHADYIAAARQAADVAGVDVVINGRTDAVKLGADVFEDPMVEAIKRIKLMEQAGARSVYPVGLSTAEQVERLVDAVSVPVNITAHPVDGHGAGDLATLAGLGVRRVTFGPLWQKWLAATSAQQLKGWA	not failed
MSDLTKVFIAPEEIVNFLKKNMQLKEVYQKILFQRLILQVAEARGITVTTEEIEAEANRQRREKRLEKAADTMAWLADQLASPEDWEMGIRDRLLSQKLANFLFADKVEAFFIQNQLEFEQVSLYQIIVDSEKLAQEIYYQIEDEEISFYEAAYLYDVDAVRRQRCGYEGKVYRFSLPVNVATVIFRTSPKQLISPLQTEQGYHLFMVEEFIPAELTGERYQEILNNMFNQWLITELNKILN	failed
MSDNNDRMYELEYPSPEVSGQTAGGPTLIVALQGYADAGHAVESSSSHLMDALDHRLIASFNNDELIDYRSRRPVVVIEHNEVTSMDELNLGLHVVRDNDNKPFLMLSGPEPDLRWGDFSNAVVDLVEKFGVENTICLYAAPMTVPHTRPTVVTAHGNSTDRLKDQVSLDTRMTVPGSASLMLEKLLKDKGKNVSGYTVHVPHYVSASPYPAATLKLLQSIADSADLNLPLLALERDAEKVHRQLMEQTEESSEIQRVVGALEQQYDSELERYRNRHPQAVMPGESELPSGDEIGAEFEKFLADLDDQGGSDHKETPEA	not failed
MSDPITLNVGGKLYTTSLATLTSFPDSMLGAMFSGKMPTKRDSQGNCFIDRDGKVFRYILNFLRTSHLDLPEDFQEMGLLRREADFYQVQPLIEALQEKEVELSKAEKNAMLNITLNQRVQTVHFTVREAPQIYSLSSSSMEVFNANIFSTSCLFLKLLGSKLFYCSNGNLSSITSHLQDPNHLTLDWVANVEGLPEEEYTKQNLKRLWVVPANKQINSFQVFVEEVLKIALSDGFCIDSSHPHALDFMNNKIIRLIRYR	failed
MSDPVSYTRKDSIAVISMDDGKVNALGPAMQQALNAAIDNADRDDVGALVITGNGRVFSGGFDLKILTSGEVQPAIDMLRGGFELAYRLLSYPKPVVMACTGHAIAMGAFLLSCGDHRVAAHAYNIQANEVAIGMTIPYAALEIMKLRLTRSAYQQATGLAKTFFGETALAAGFIDEIALPEVVVSRAEEAAREFAGLNQHAHAATKLRSRADALTAIRAGIDGIAAEFGL	not failed
MSDRLANQIAAGEVVQRPASVAKELIENALDAGASSIEVLLKDAGSTLVQVIDDGCGMGPGDAERCFERHATSKLRSVDDLERIRTLGFRGEALASIAAVAQVTLKTKRVEDDAGTLVRVEGGEQVEKRPCAIPNGTSVAVRNLFFNVPARRNFLKTPATELKHLTQTVQSLALANPDTAVRLEHDGHEHYDLPAAPDSDWHAATRARILGLFGGDHEDELVAVEDESSDLRLRGFVGAPSFHRKTRGEQFLFVNGRAVTDRYLSHAVKKAYGELVPDGAFPFFALFLAMNPERVDVNVHPQKEEVKFDDQSGIYGFLRSAVRRALGRVHVSPQMDDGDDEADNEEDSPGPESDGTGSGGHAVSGDGTSSPRPTPTSFQPQRSSGDATDSSGRSSSGPSPQSPKPRPENPSVSPGDQSDALYRRPDGGDESSPGDAPASPPHREGGSSSTSAADEAERSGRRPVWGLHDTYVVTPTETGMMLVDQRAAHLRVLYERARAHLRDQQGASQRLLFPHTVDLSPAEVELLDELRDDLDALGFELERLSGRTVSVRGVPADVPDGNEDTILEELLEQYRSAQDAVEDERREHLAKTMAQRSAVDRGQPLSEEERRALLDDLFDCEMPYADPTGTPTIVKLSMEELADRFGR	failed
MSDRRAPLVLEVDGVRHPLTPPGLTIGRGSDADIRINDPGISRLHARINVWPQGNDIGLSIEDLDSTNGVTVNGVKVTSTELGDGSRIEIGSTRMLVHSPTRILEHHHHHH	failed
MSDSGRADALLAELPRDGRGRLKVFLGAAPGVGKTYAMLQAAHSQLRQGVKVLAGVVETHGRAETEALLSGLPQQPLVRSEYRGVLLEEMDLDGLLKAKPKLVLVDELAHSNAPGSRHAKRWQDIQELLAAGIDVFTTVNVQHLESLNDQVRGITGVQVRETLPDWVLQEAYELLLVDLPPRELLERLRDGKVYVPEQARAAIDAFFTQTNLTALRELAMQTAAAQVDNDLAQGYRQLGQAAPAVRGRLLVGIDGDAQAERLVRHASRVAQRRHLPWSLVHVDNGRLRDEQARLRLQAAQQLAERLGGEVVLLRAGEVAKTLIQHAAERRASLLLVGQSRRRWRRRWFGGGLAARLLRNADGLEINVLDSEPQPHQPGLRVKHSLIWFDYVLAVLATLLASALAWGVASVLPLPNISLVFLAAVLLVAVRSSLGPALACAALSFLSYDFLFIPPNFSLAIQREEDVLTLLFFLLMAALTGNLAARQRRQLQALRDTQEETGELLDLSRKLTAATDRQAVISAAAQHLNGRDELRVCLINRDGQGGWKVETGGSPQFSEAERAAADWAWQHDQPAGLGTGTLPFGRWWWWPLSVDDGPLGLLGVCPREGEEFSGQRRRLLTALSQPLAQALARARLAEDLEAARLHGETEQLRSALLASVSHDLRTPLTSMRGSIDSLLALGEAIPLEDRRELLEGTRDEAERLDRYIQNLLDMTRLGHGALKLARDWVAPGDIVGSALNRLRAVLAPLQVATELPADLPLLYVHAALIEQALVNVLENAARFSPLQGHLQLKVSASEQELSFAVSDEGPGIPEDERAKIFDMFYTAARGDRGGQGTGLGLAICQGMVGAHGGHISVAEGIGGKGTCITLHLPLQTQPELESDL	failed
MSDSLRIIFAGTPDFAARHLGALLSSQHKIVGVFTQPDRPAGRGNKLTPSPVKILAEHHGIPVFQPKSLRPEENQHLVADLNADIMVVVAYGLILPAAVLAMPRLGCINVHGSLLPRWRGAAPIQRSVWAGDEKTGITIMQMDIGLDTGAMLHKIECAIQPEDTSATLYDKLAQLGPQGLLITLQQLAAGTALAEVQNETQATYAEKLSKEEAKLDWTLSATQLERCIRAFNPWPVSYFIVDEQPIKVWQAQVLPAGEDAEPGTIIHADKHGIQVATADGVLNITQLQPAGKKAMSAADLLNSRREWFIPGSQLV	not failed
MSDSPRPSSRPDFWDVRYERDRHLFGAEPNAFVKAEAHRLPPESEVVEVGAGEGRTAAWLAREHGHRVTAVDFSETALKTAQERAEAEHLRLDTVRADVRTWRPDRQWDAAVVTFLQLLPDERPRLYRLLKNSVRSGGWLLAEWLRPAHLTGPYDRMGPSRADRMVPVDEVRRAFADEHLASVEAVDVHLQEGPHLTGDAAVVRGIVQAGAS	failed
